# Reference: US20240083996A1, “COMPOSITION FOR PROPHYLAXIS OR TREATMENT OF IL-8 RELATED DISEASES” (Chugai Seiyaku Kabushiki Kaisha, priority 2016, published 2024)
# B1: H1009/L395-F1886m: variable region of H1009/L395 with Fc variant F1886m (antibody)
# heavy: QVQLVESGGGLVQPGGSLRLSCAASGFTFSDYYLSWVRQAPGKGLEWVGLIRNKDNYHTPEYSASVKGRFTISRDDSKNSLYLTMSDLKTEDTAVYYCARENHRYDVELAYWGQGTLVTVSSASTKGPSVFPLAPSSKSTSGGTAALGCLVKDYFPEPVTVSWNSGALTSGVHTFPAVLQSSGLYSLSSVVTVPSSSLGTQTYICNVNHKPSNTKVDKKVEPKSCDKTHTCPPCPAPELLGGPSVFLFPPKPKDTLMISRTPEVTCVVVDVSHEDPEVKFNWYVDGVEVHNAKTKPREEQYNSTYRVVSVLTVLHQDWLNGKEYKCKVSNKALPAPIEKTISKAKGQPREPQVYTLPPSREEMTKNQVSLTCLVKGFYPSDIAVEWESNGQPENNYKTTPPVLDSDGSFFLYSKLTVDKSRWQQGNVFSCSVLHEALHAHTTRKELSLSP
# light: DIQMTQSPSSLSASVGDRVTITCRASEIIYSYLAWYQQKPGKAPKLLIYKAKTHADGVPSRFSGSGSGTDFTFTISSLQPEDIATYYCKHHFGFPRTFGQGTKVEIKRTVAAPSVFIFPPSDEQLKSGTASVVCLLNNFYPREAKVQWKVDNALQSGNSQESVTEQDSKDSTYSLSSTLTLSKADYEKHKVYACEVTHQGLSSPVTKSFNRGEC
# How the values were obtained:
# cystic fibrosis = conditions: J Cyst Fibros. 2013; cited from earlier work
# COPD = conditions: Am J Respir Crit Care Med. 2015; worsened in the placebo group; cited from earlier work
# [1] = known values for commercially available antibodies (FIG. 19); cited from earlier work
# [2] = tested on: soluble forms of FcγRIa and FcγRIIIa in human and cynomolgus monkey; experiment: Binding to various FcγRs (BIACORE T200); conditions: 20° C., HBS-EP+ (FIG. 27)
# Procedure: Soluble FcγRIa and FcγRIIIa in both human and cynomolgus monkey were produced in the form of His-tagged molecules by methods known to those of ordinary skill in the art. […] Next, soluble FcγRIa or FcγRIIIa was injected with a running buffer (used as a reference solution), and was made to interact with the antibodies captured onto the sensor chip. HBS-EP+ (GE Healthcare) was used as the running buffer, and HBS-EP+ was also used to dilute the soluble FcγRIa or FcγRIIIa. […] All measurements were carried out at 20° C.
molecule,measurement,setting,value
O=C(Nc1ccc(Cl)c(S(=O)(=O)N2CCNCC2)c1O)Nc1cccc(F)c1Cl [Elubrixin],topical neutrophil migration in cystic fibrosis,cystic fibrosis,Topical neutrophil migration was observed to be suppressed
CC[C@@H](Nc1c(Nc2cccc(C(=O)N(C)C)c2O)c(=O)c1=O)c1ccc(C)o1 [MK7123],pulmonary function (FEV1) in COPD patients,COPD,pulmonary function (FEV1) was improved in the active drug group
Alemtuzumab [Campath],frequency of ADA development in humans,[1],45%
Daclizumab [Zenapax],frequency of ADA development in humans,[1],14%
B1,"binding to FcγRs (hFcγRIa, hFcγRIIIa, cynoFcγRIa, cynoFcγRIIIa)",[2],bind to all FcγRs
